Patent US8470548 (INTRA CELLULAR THERAPIES, dated 2013)

Tests used:
[1] = biological target: T1, third intracellular loop of the 5-HT1A receptor (amino acids 218-345), bait construct (rat, UniProt P04386 1-147; P19327 218-345); experiment: yeast two-hybrid, growth on -LWH medium and X-gal overlay
T1 construct: Yeast two-hybrid bait in the pAS2-derived vector

[2] = biological target: T2, third intracellular loop of the 5-HT6 receptor (amino acids 209-265), bait construct (rat, UniProt P04386 1-147; P31388 209-265); experiment: as above
T2 construct: Yeast two-hybrid bait in the pAS2-derived vector

[3] = biological target: bait control vector (empty plasmid) (UniProt P04386 1-147); experiment: as above
[4] = biological target: T3, third intracellular loop of the rat 5-HT1B receptor (amino acids 226-311), GAL4 DNA-binding domain fusion … (rat, UniProt P04386 1-147; P28564 226-311); experiment: yeast two-hybrid, co-transformation of p11 prey and bait, -LWH medium and X-gal overlay
T3 construct: Yeast two-hybrid bait in a pAS2-derived vector; also called 5-HT1B receptor-bait; 5-HT1B receptors

B1: p11 (rat; prey clone from the pACT2 rat brain cDNA library) (other, UniProt P05943 1-95, looked up)
chain: MPSQMEHAMETMMLTFHRFAGEKNYLTKEDLRVLMEREFPGFLENQKDPLAVDKIMKDLDQCRDGKVGFQSFLSLVAGLIIACNDYFVVHMKQKK
notes: Yeast two-hybrid prey; identified by BLAST search of the prey inserts; also called p11 prey; annexin-II light chain; not shown: fusion partner encoded by the pACT2 prey vector
binding result [1]: no binding
binding result [2]: no binding
binding result [3]: no binding
binding result [4]: binds
